The source of these data is paper PMC3022644, “The exopolyphosphatase TbrPPX1 of Trypanosoma brucei” (BMC Microbiology, 2011).

As usually defined, the Km is the substrate concentration at which the rate is half of its maximum. As a reminder, the kcat is the number of substrate molecules converted per active site and unit of time at saturation.

Substrate in the series: O=P(O)(O)OP(=O)(O)OP(=O)(O)O
Briefly: purified protein. It counts as biochemical, Trypanosoma brucei. The conditions noted are these: 50 mM HEPES pH 7.8, 50 μM EGTA, 1 mM MgCl2, 30°C, GST fusion.

B1: TbrPPX1 (Trypanosoma brucei) (protein)
chain: MTAVVNEFLKRGVRALAARQDSVLVMGNEGGDMDTVIGSIFLAMYLEKRDVFGVGSYVPVLNFEKDDLPLRQDVVKLLSRHNVSTDSIYSVKQSGNGVDFLDLHQMKLPIVLYDHNKLSPEQVYLGERIVGVVDHHEDEQLYVDQTKCLRRICKTGSACTLVAELFNEAGLEVPCPELLLAPIVVDTVNFEPSQKRVTERDILASRLLVGRDDCGDYLTGMFKELMAWKNDIHCLTVPQHLRRDYKNFEFPFISAENKILRVGISSISCRSDELLSVHGVSSVSSNCIEFIKQRSIDMLLLTFAGERTPGSYCRQLGVVAKDEGLAALQAYCKKSPSGLDFTLLEDVTVNEWAFSIYELSDPSVSRKKLVPSLTSFLSVWNNL
As for B1, the Michaelis constant (Km) was 27.2 ± 4.2 µM and the catalytic constant (kcat) was 8.1 ± 1.5 s⁻¹.
